# According to PMC3592467 (Nucleic Acids Research, 2012):
# Biological target: CDC5L–GFP (UniProt Q99459 1-802)
# Assay: affinity purification with mass spectrometry
# Chain of CDC5L–GFP (Q99459 whole entry): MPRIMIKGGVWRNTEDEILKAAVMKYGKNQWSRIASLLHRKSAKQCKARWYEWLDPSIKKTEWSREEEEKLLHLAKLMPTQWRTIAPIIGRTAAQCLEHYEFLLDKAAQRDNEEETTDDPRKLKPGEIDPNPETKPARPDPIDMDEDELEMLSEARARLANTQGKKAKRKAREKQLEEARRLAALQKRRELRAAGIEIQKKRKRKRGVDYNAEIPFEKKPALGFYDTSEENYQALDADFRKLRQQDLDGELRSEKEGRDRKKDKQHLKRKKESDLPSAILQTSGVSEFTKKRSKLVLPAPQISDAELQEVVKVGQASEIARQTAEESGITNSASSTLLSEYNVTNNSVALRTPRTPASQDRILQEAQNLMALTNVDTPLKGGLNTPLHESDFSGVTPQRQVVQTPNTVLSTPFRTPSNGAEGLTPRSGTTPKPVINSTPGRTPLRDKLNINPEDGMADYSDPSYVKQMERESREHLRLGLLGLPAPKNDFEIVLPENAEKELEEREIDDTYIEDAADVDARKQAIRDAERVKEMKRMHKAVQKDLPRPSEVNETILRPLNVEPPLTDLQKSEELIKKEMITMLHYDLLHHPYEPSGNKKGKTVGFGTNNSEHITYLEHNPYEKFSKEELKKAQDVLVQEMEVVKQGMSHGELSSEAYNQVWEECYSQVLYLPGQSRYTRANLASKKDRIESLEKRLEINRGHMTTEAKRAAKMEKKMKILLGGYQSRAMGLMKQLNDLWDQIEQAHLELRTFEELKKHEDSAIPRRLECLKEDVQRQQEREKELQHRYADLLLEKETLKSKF
Binder,stoichiometry N,stoichiometry with CDC5L as a dimer (CDC5L 2) [per CDC5L dimer]
CTNNBL1 (natural protein) MDVGELLSYQPNRGTKRPRDDEEEEQKMRRKQTGTRERGRYREEEMTVVEEADDDKKRLLQIIDRDGEEEEEEEEPLDESSVKKMILTFEKRSYKNQELRIKFPDNPEKFMESELDLNDIIQEMHVVATMPDLYHLLVELNAVQSLLGLLGHDNTDVSIAVVDLLQELTDIDTLHESEEGAEVLIDALVDGQVVALLVQNLERLDESVKEEADGVHNTLAIVENMAEFRPEMCTEGAQQGLLQWLLKRLKAKMPFDANKLYCSEVLAILLQDNDENRELLGELDGIDVLLQQLSVFKRHNPSTAEEQEMMENLFDSLCSCLMLSSNRERFLKGEGLQLMNLMLREKKISRSSALKVLDHAMIGPEGTDNCHKFVDILGLRTIFPLFMKSPRKIKKVGTTEKEHEEHVCSILASLLRNLRGQQRTRLLNKFTENDSEKVDRLMELHFKYLGAMQVADKKIEGEKHDMVRRGEIIDNDTEEEFYLRRLDAGLFVLQHICYIMAEICNANVPQIRQRVHQILNMRGSSIKIVRHIIKEYAENIGDGRSPEFRENEQKRILGLLENF,0.06 relative to CDC5L,0.12
AD-002 (natural protein) MTTAARPTFEPARGGRGKGEGDLSQLSKQYSSRDLPSHTKIKYRQTTQDAPEEVRNRDFRRELEERERAAAREKNRDRPTREHTTSSSVSKKPRLDQIPAANLDADDPLTDEEDEDFEEESDDDDTAALLAELEKIKKERAEEQARKEQEQKAEEERIRMENILSGNPLLNLTGPSQPQANFKVKRRWDDDVVFKNCAKGVDDQKKDKRFVNDTLRSEFHKKFMEKYIK,0.36 relative to CDC5L,0.72

# Now from value to binder:
stoichiometry N,stoichiometry with CDC5L as a dimer (CDC5L 2) [per CDC5L dimer],Binder
0.62 relative to CDC5L,1.24,Spf27 (natural protein) MAGTGLVAGEVVVDALPYFDQGYEAPGVREAAAALVEEETRRYRPTKNYLSYLTAPDYSAFETDIMRNEFERLAARQPIELLSMKRYELPAPSSGQKNDITAWQECVNNSMAQLEHQAVRIENLELMSQHGCNAWKVYNENLVHMIEHAQKELQKLRKHIQDLNWQRKNMQLTAGSKLREMESNWVSLVSKNYEIERTIVQLENEIYQIKQQHGEANKENIRQDF
0.37 relative to CDC5L,0.72,PLRG1 (natural protein) MVEEVQKHSVHTLVFRSLKRTHDMFVADNGKPVPLDEESHKRKMAIKLRNEYGPVLHMPTSKENLKEKGPQNATDSYVHKQYPANQGQEVEYFVAGTHPYPPGPGVALTADTKIQRMPSESAAQSLAVALPLQTKADANRTAPSGSEYRHPGASDRPQPTAMNSIVMETGNTKNSALMAKKAPTMPKPQWHPPWKLYRVISGHLGWVRCIAVEPGNQWFVTGSADRTIKIWDLASGKLKLSLTGHISTVRGVIVSTRSPYLFSCGEDKQVKCWDLEYNKVIRHYHGHLSAVYGLDLHPTIDVLVTCSRDSTARIWDVRTKASVHTLSGHTNAVATVRCQAAEPQIITGSHDTTIRLWDLVAGKTRVTLTNHKKSVRAVVLHPRHYTFASGSPDNIKQWKFPDGSFIQNLSGHNAIINTLTVNSDGVLVSGADNGTMHLWDWRTGYNFQRVHAAVQPGSLDSESGIFACAFDQSESRLLTAEADKTIKVYREDDTATEETHPVSWKPEIIKRKRF
2.08 relative to CDC5L,4.16,PRP19 (natural protein) MSLICSISNEVPEHPCVSPVSNHVYERRLIEKYIAENGTDPINNQPLSEEQLIDIKVAHPIRPKPPSATSIPAILKALQDEWDAVMLHSFTLRQQLQTTRQELSHALYQHDAACRVIARLTKEVTAAREALATLKPQAGLIVPQAVPSSQPSVVGAGEPMDLGELVGMTPEIIQKLQDKATVLTTERKKRGKTVPEELVKPEELSKYRQVASHVGLHSASIPGILALDLCPSDTNKILTGGADKNVVVFDKSSEQILATLKGHTKKVTSVVFHPSQDLVFSASPDATIRIWSVPNASCVQVVRAHESAVTGLSLHATGDYLLSSSDDQYWAFSDIQTGRVLTKVTDETSGCSLTCAQFHPDGLIFGTGTMDSQIKIWDLKERTNVANFPGHSGPITSIAFSENGYYLATAADDSSVKLWDLRKLKNFKTLQLDNNFEVKSLIFDQSGTYLALGGTDVQIYICKQWTEILHFTEHSGLTTGVAFGHHAKFIASTGMDRSLKFYSL

# Biological target: EED-GFP (UniProt O75530 1-441)
# Assay: affinity purification with mass spectrometry
# Chain of EED-GFP (O75530 whole entry): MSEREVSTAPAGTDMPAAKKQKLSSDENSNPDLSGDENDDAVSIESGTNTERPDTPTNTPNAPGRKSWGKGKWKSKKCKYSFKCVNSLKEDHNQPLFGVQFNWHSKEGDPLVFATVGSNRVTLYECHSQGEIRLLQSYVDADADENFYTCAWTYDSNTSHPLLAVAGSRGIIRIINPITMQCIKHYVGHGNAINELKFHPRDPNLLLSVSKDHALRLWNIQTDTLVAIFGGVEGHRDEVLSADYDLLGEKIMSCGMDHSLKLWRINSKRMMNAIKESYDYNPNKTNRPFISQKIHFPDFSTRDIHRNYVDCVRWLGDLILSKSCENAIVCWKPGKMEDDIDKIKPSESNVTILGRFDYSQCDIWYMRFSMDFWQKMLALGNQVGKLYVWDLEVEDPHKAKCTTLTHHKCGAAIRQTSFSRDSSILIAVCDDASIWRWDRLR
row,stoichiometry N,Binder
1,0.12 relative to EED,Jarid2 (natural protein) MSKERPKRNIIQKKYDDSDGIPWSEERVVRKVLYLSLKEFKNSQKRQHAEGIAGSLKTVNGLLGNDQSKGLGPASEQSENEKDDASQVSSTSNDVSSSDFEEGPSRKRPRLQAQRKFAQSQPNSPSTTPVKIVEPLLPPPATQISDLSKRKPKTEDFLTFLCLRGSPALPNSMVYFGSSQDEEEVEEEDDETEDVKTATNNASSSCQSTPRKGKTHKHVHNGHVFNGSSRSTREKEPVQKHKSKEATPAKEKHSDHRADSRREQASANHPAAAPSTGSSAKGLAATHHHPPLHRSAQDLRKQVSKVNGVTRMSSLGAGVTSAKKMREVRPSPSKTVKYTATVTKGAVTYTKAKRELVKDTKPNHHKPSSAVNHTISGKTESSNAKTRKQVLSLGGASKSTGPAVNGLKVSGRLNPKSCTKEVGGRQLREGLQLREGLRNSKRRLEEAHQAEKPQSPPKKMKGAAGPAEGPGKKAPAERGLLNGHVKKEVPERSLERNRPKRATAGKSTPGRQAHGKADSASCENRSTSQPESVHKPQDSGKAEKGGGKAGWAAMDEIPVLRPSAKEFHDPLIYIESVRAQVEKFGMCRVIPPPDWRPECKLNDEMRFVTQIQHIHKLGRRWGPNVQRLACIKKHLKSQGITMDELPLIGGCELDLACFFRLINEMGGMQQVTDLKKWNKLADMLRIPRTAQDRLAKLQEAYCQYLLSYDSLSPEEHRRLEKEVLMEKEILEKRKGPLEGHTENDHHKFHPLPRFEPKNGLIHGVAPRNGFRSKLKEVGQAQLKTGRRRLFAQEKEVVKEEEEDKGVLNDFHKCIYKGRSVSLTTFYRTARNIMSMCFSKEPAPAEIEQEYWRLVEEKDCHVAVHCGKVDTNTHGSGFPVGKSEPFSRHGWNLTVLPNNTGSILRHLGAVPGVTIPWLNIGMVFSTSCWSRDQNHLPYIDYLHTGADCIWYCIPAEEENKLEDVVHTLLQANGTPGLQMLESNVMISPEVLCKEGIKVHRTVQQSGQFVVCFPGSFVSKVCCGYSVSETVHFATTQWTSMGFETAKEMKRRHIAKPFSMEKLLYQIAQAEAKKENGPTLSTISALLDELRDTELRQRRQLFEAGLHSSARYGSHDGSSTVADGKKKPRKWLQLETSERRCQICQHLCYLSMVVQENENVVFCLECALRHVEKQKSCRGLKLMYRYDEEQIISLVNQICGKVSGKNGSIENCLSKPTPKRGPRKRATVDVPPSRLSASSSSKSASSSS
2,0.2 relative to EED,AEBP2 (natural protein) MAAAITDMADLEELSRLSPLPPGSPGSAARGRAEPPEEEEEEEEEEEEAEAEAVAALLLNGGSGGGGGGGGGGVGGGEAETMSEPSPESASQAGEDEDEEEDDEEEEDESSSSGGGEEESSAESLVGSSGGSSSDETRSLSPGAASSSSGDGDGKEGLEEPKGPRGSQGGGGGGSSSSSVVSSGGDEGYGTGGGGSSATSGGRRGSLEMSSDGEPLSRMDSEDSISSTIMDVDSTISSGRSTPAMMNGQGSTTSSSKNIAYNCCWDQCQACFNSSPDLADHIRSIHVDGQRGGVFVCLWKGCKVYNTPSTSQSWLQRHMLTHSGDKPFKCVVGGCNASFASQGGLARHVPTHFSQQNSSKVSSQPKAKEESPSKAGMNKRRKLKNKRRRSLPRPHDFFDAQTLDAIRHRAICFNLSAHIESLGKGHSVVFHSTVIAKRKEDSGKIKLLLHWMPEDILPDVWVNESERHQLKTKVVHLSKLPKDTALLLDPNIYRTMPQKRLKRTLIRKVFNLYLSKQ
3,~0.06 relative to the core subunits,C10orf12 (natural protein) MQRMIQQFAAEYTSKNSSTQDPSQPNSTKNQSLPKASPVTTSPTAATTQNPVLSKLLMADQDSPLDLTVRKSQSEPSEQDGVLDLSTKKSPCAGSTSLSHSPGCSSTQGNGENSTEAKAVDSNNQSKSPLEKFMVKLCTHHQKQFIRVLNDLYTESQPGTEDLQPSDSGAMDVSTCNAGCAQLSTKHKEKDALCLDMKSSASVDLFVDSSDSHSPLHLTEQTPKKPPPEINPVDGRENALTVVQKDSSELPTTKSNSINSSSVDSFTPGYLTASNCSSVNFHHIPKILEGQTTGQEQDTNVNICEDGKDHMQSSALVESLITVKMAAENSEEGNTCIIPQRNLFKALSEEAWNSGFMGNSSRTADKENTLQCPKTPLRQDLEANEQDARPKQENHLHSLGRNKVGYHLHPSDKGQFDHSKDGWLGPGPMPAVHKAANGHSRTKMISTSIKTARKSKRASGLRINDYDNQCDVVYISQPITECHFENQKSILSSRKTARKSTRGYFFNGDCCELPTVRTLARNLHSQEKASCSALASEAVFTPKQTLTIPAPRHTVDVQLPREDNPEEPSKEITSHEEGGGDVSPRKEPQEPEVCPTKIKPNLSSSPRSEETTASSLVWPLPAHLPEEDLPEGGSTVSAPTASGMSSPEHNQPPVALLDTEEMSVPQDCHLLPSTESFSGGVSEDVISRPHSPPEIVSREESPQCSENQSSPMGLEPPMSLGKAEDNQSISAEVESGDTQELNVDPLLKESSTFTDENPSETEESEAAGGIGKLEGEDGDVKCLSEKDTYDTSIDSLEENLDKKKKGKKFPEASDRCLRSQLSDSSSADRCLRNQSSDSSSACLEIKVPKNPSAKRSKKEGHPGGTTPKGLLPDSFHTETLEDTEKPSVNERPSEKDAEQEGEGGGIITRQTLKNMLDKEVKELRGEIFPSRDPITTAGQPLPGERLEIYVQSKMDEKNAHIPSESIACKRDPEQAKEEPGHIPTQHVEEAVNEVDNENTQQKDDESDAPCSSLGLSSSGSGDAARAPKSVPRPKRLTSSTYNLRHAHSLGSLDASKVTSEKEAAQVNPIMPKENGASESGDPLDEDDVDTVVDEQPKFMEWCAEEENQELIANFNAQYMKVQKGWIQLEKEGQPTPRARNKSDKLKEIWKSKKRSRKCRSSLESQKCSPVQMLFMTNFKLSNVCKWFLETTETRSLVIVKKLNTRLPGDVPPVKHPLQKYAPSSLYPSSLQAERLKKHLKKFPGATPAKNNWKMQKLWAKFRENPDQVEPEDGSDVSPGPNSEDSIEEVKEDRNSHPPANLPTPASTRILRKYSNIRGKLRAQQRLIKNEKMECPDALAVESKPSRKSVCINPLMSPKLALQVDADGFPVKPKSTEGMKGRKGKQVSEILPKAEVQSKRKRTEGSSPPDSKNKGPTVKASKEKHADGATKTPAAKRPAARDRSSQPPKKTSLKENKVKIPKKSAGKSCPPSRKEKENTNKRPSQSIASETLTKPAKQKGAGESSSRPQKATNRKQSSGKTRARPSTKTPESSAAQRKRKLKAKLDCSHSKRRRLDAK
4,0.47 relative to EED,C17orf96 (natural protein) METLCPAPRLAVPASPRGSPCSPTPRKPCRGTQEFSPLCLRALAFCALAKPRASSLGPGPGELAARSPVLRGPQAPLRPGGWAPDGLKHLWAPTGRPGVPNTAAGEDADVAACPRRGEEEEGGGGFPHFGVRSCAPPGRCPAPPHPRESTTSFASAPPRPAPGLEPQRGPAASPPQEPSSRPPSPPAGLSTEPAGPGTAPRPFLPGQPAEVDGNPPPAAPEAPAASPSTASPAPAAPGDLRQEHFDRLIRRSKLWCYAKGFALDTPSLRRGPERPPAKGPARGAAKKRRLPAPPPRTAQPRRPAPTLPTTSTFSLLNCFPCPPALVVGEDGDLKPASSLRLQGDSKPPPAHPLWRWQMGGPAVPEPPGLKFWGINMDES
